The RNAGym collection of RNA variant scans (doi:10.1073/pnas.2313332121)

B1: TPR t1 (parent)
chain: GACCAAUCUGCCCUCAGAGCUCGAGAACAUCUUCGGAUGCAGAGGAGGCAGGCUUCGGUGGCGCGAUAGCGCCAACGUCCUCAACCUCCAAUGCAUCCCACCACAUGAUGAUGCCUGAAGAGCCUUGGUUUUUUG

Variants of: B1
Experiment: polymerase ribozyme fitness, log enrichment relative to wild type (log ratio); higher = more active; in vitro selection for triplet polymerase activity
Summary of the method: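 Mutant libraries of both subunits of a heterodimeric triplet polymerase ribozyme were PCR-built, transcribed, and selected once in triplicate, with frozen incubation at −7 °C and capture of gel-excised extended constructs on streptavidin beads before RT-PCR. Illumina sequencing of input and output libraries was filtered to genotypes with ≥10 input reads and ≥1 read per output. Fitness is the logarithm of genotype enrichment over wild-type enrichment, using inverse-variance-weighted replicate averages. The logarithm is base 2.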

Variant	polymerase ribozyme fitness (log ratio)
GACCAAUCUGCCCUCAGCGCUCGAGAACAUCUUCGGAUGCAGAGGAGGCAGGCUUCGGUGGCGCGAUAGCGACAACGUCCUCAACCUCCAAUGCAUCCCACCACAUGAUGAUGCCUGAAGAGCCUUGGUUUUUUG	-2.45
GACCAAUCUGCCCUCAGAGCUCGAGAACAUCUUAGGAUGCAGAGGAGGCAGGCUUCGGUGGCGCGAUAGCGCCAACGUCCUCAGCCUCCAAUGCAUCCCACCACAUGAUGAUGCCUGAAGGGCCUUGGUUUUUUG	-2.74
GACCAAUCUGCCCUCAGAGCUCGAGAACAUCUUCGGAUGCAGAGGAGGCAGGCUUCGGUGGCGCGAUAGUGCCAACGUCCUCAACCUCCAAUGCAUCCCACCACAUGAUGAUGCCUGAAGAACCUUGGUUUUUUG	-0.84
GACCAAUCUGCCCUCAGAGCUCGAGGACAUCUUCGGAUGCAGAGGAGGCAGGCUUCGGUGGCGCGAUAGCGCCAACGUCCUCAACCUCCAAUGCAUCCCACCACAUGAUGAUGCCUGAAGAGCCUUGGUUUUUUG	-1.67
GACCAAUCUGCCCUCAGAGCUCGAGAACAUCUUCGGAUGCAGAGGAGGCAGGCUUCGGUGGCGCGAUAGCGCCAACGUACUCAACCUCCAAUUCAUCCCACCACAUGAUGAUGCCUGAAGAGCCUUGGUUUUUUG	-2.82
GACCAAUCUGCCCGCAGAGCUCGAGAACAUCUUCGGAUGCAGAGGAGGCAGGCUCCGGUGGCGCGAUAGAGCCAACGUCCUCAACCUCCAAUGCAUCCCACCACAUGAUGAUGCCUGAAGAGCCUUGGUUUUUUG	-3.8
GACCAAUCUGCCCUCAGAGCUCGAGAACUUCUUCGGAUGCAGAGGAAGCAGGCUUCGGUGGCGCGAUAGCGCCAACGUCCUCAACGUCCAAUGCAUCCCACCACAUGAUGAUGCCUGAAGAGCCUUGGUUUUUUG	-2
GACCUAUCUACCCUCAGAGCUCGAGAACAUCUUCGGAUGCAGAGGAGGCAGGCUUCGGUGGCGCGAUAGCGCCAACGUCCUCAACUUCCAAUGCAUCCCACUACAUGAUGAUACCUGAAGAGCCUUGCUUUUUUG	-5.52
GACCAAUCUGCCCUCAGAGCUCGAGAACAUCUUCGGAUGCAGAGGAGGCAGGCGUCGGUGGCGCGAUAGCGCCAACGUCCUCAACCUCCAAUGCAUCCCACCACAUGAUGAUGCCAGAAGAGCCUUGGUUUUUUG	-3.36
GACCAAUCUGCCCGCAGAGCUCGAGAACAUCUUCGGAUGCAGAGGAGGCAGGCUUCGGUGGCGCGAUAGCGCCAACGUCCUCAACCUCCAAUGCAUCCCACCACAUGAUGAUGCCUGAAGAGCCUUGAUUUUUUG	-3.77
GAGCAAUCUCCCCUCAGAGCUCGAGAACAUCUUGGGAUGCAUAGGAGGCAGGCUUCGGUGGCGCGAUAUCGCCAACGUCCUGAACCUCCAAUGCAUCCCACAACAUGAAGAUGCCUGAAGAGCCUUGGUUUUUUG	-5.83
GACCAAUAUGCCCUCAGAGCUCGAUCACAUCUUCGGAUGUAGAGGAGGCAGGCUUCGGUGGCUCGAUAGCGCCAACGUCCUCAACCUGCAAUGCAUCCCACCACAUGAUGACGCCUGAAGAGAAUUGGUAUUUUG	-7.64
GACCAAUCUCUCCUCAGAGUUCGAGAACAUCUUCGGAUGCAGAGGAGACAGGCUUCGGUGGCGCGAUAGCGCCAACGUCCUUAACCUCCAAUGCAUCCCACCACAUGAUGAUGCCUGAAGAGCCUUGGUUUUUUG	-3
GACCAAUCUGCUCUCAGAGCUCGAGAACAUCUUCGGAUGCAGAGGAGGCAGGCUUCGGUGGCGCGAUAGCGCAAACGUCCUCAACCUCCAAUGCAUGCCACCAUAUGAUGAUGCCUGAAGAGCCUUGGUUUUUUG	-2.89
GACCAAUCUGCCCUCAGAGCUCGAGAACAUCUUCGGAUGCAGAGGAGGCAGGCUUCGGUGGCGCGAUAGCGCCAACGUCCUCAACCUCCAAUGCAUCCCACCACGUGAUGAUGCCUGAAUAGCCUUGGUUUUUUG	-2.44
GACCAAUCUGCCCUCAGAGCUCGAGAACAUCUUCGGAUGCAGAGGAGGGAGGCUUCGGUGGCGCGAUAGCGCCAACGUCCUCAACCUCCAAUGCAUCGCACCACAUGAUGAUGCCUGAAGAGCCUUGGUUUUUUG	-4.99
GACCUAUCUGCCCUCAGAGCUCGAGAACAUCUUCGGAUGCAGAGGAGGCAGGUUUCGGUGGCGCGAUAGCGCCAACGUCCUCAACCUCCAAAGCAUCCCACCACAUGAUGAUUCCUGAAGAGCCUUGGUUUUUUG	-4.65
GACCAAUCUGCCCUCAUAGCUCUAGAACAUCUUCGGAUGCAGAGGAGGCAGGCUUCGGUGGCGCGAUAGCGCCUACGUCCUCAACCUCCAAUGCAUCCCACCACAUGAUGAUGCCUGAAGAGGCUUGGUUUUUUG	-5.53
GACCAAUCGGCCCUCAGAGCUCGAGAACAUCUUCGGAUUCAGAGGAGGCAGGCUUCGGUGGCGCGAUAGCGCCAACGUCCUCAACCUCCAAUGCAUCCCACCACAUGAUGAUGCCUGAAGAGCCUUGGUUUUUUG	-0.00423
GACCAAUCUGCCCUCAUAGCUCGAGAACAUCUUCGGAUGAAAAGGAGGAAGGCUUCGGUGGCGCGAUAGCGCCAACGUCCUCAACCUCCAAUGCAUCCCACCACAUGAUGAUGCCUGAAGAGCCUUGGUUUUUUG	-6.46
GACCAAUCUGCCCUCAGAGCUGGAGAACAUCUUAGGAUGCAGAGGAGGCAGCCUUCGGUGGCGCGAUAGCGCCAACGUCCUCAACCUCCAAUGCAUCCCACCACAUGAUGAUGCCUGAAGAGCCUUGGUUUUUUG	-4.14
